The source of these data is paper doi:10.1101/2021.06.23.449282.

The assay addresses directed activation strategy TMPRSS2 (activated TMPRSS2 ectodomain, residues 109-492, DDDDK255 activation motif) (human) (UniProt O15393). Description: enzyme inhibition assay.

With “sunflower trypsin inhibitor-1 (from UniProt Q4GWU5 40-56) (peptide)”, the Ki (usually the dissociation constant of the complex between target and ligand, obtained from inhibition or displacement) worked out at 0.4 µM. This counts as sub-micromolar.
